Test results from the supplement of paper PMC12042874.
± gives the uncertainty stated by the source.

Assay: amyloid nucleation score (Sup35N fusion, yeast selection) (log enrichment); library NNK1; higher = more nucleation; inactive = no reads after selection
In short: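 The nucleation score is the log enrichment of output over input reads, calculated with DiMSum and centred on the mode score of non-aggregating sequences. Sequences with under 100 input reads were excluded. Reads came from Illumina sequencing of plasmid inserts from psi-negative yeast expressing Sup35N fused to peptides of 20 random codons, induced 24 hours with 100 μM copper sulfate and grown 7 days at 30°C without adenine and uracil.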

Row | Substance | amyloid nucleation score
1 | SYICLHYFCIQ | 5.745 ± 0.055
2 | SYIGDCEIFIKEPVGANNLE | -0.909 ± 2.7
3 | SYISLSLISFSVGGSSHFSM | 6.96 ± 0.077
4 | SYMGSNSSYYCMRGWGRTWY | 2.14 ± 0.095
5 | SYMKQINTGKVFRAHYVLLA | 0.117 ± 1.1
6 | SYPKGGLPCGWIRTPPWRFH | 0.42 ± 0.59
7 | SYPSGSP | -0.061 ± 0.96
8 | SYPTKLPWFGGGYNRGSMSS | -0.481 ± 0.58
9 | SYRSVG | 0.25 ± 0.59
10 | SYVPANY | -1.82 ± 1.1
11 | SYVVYCHSAMRRKGSMGRYL | 0.468 ± 0.37
12 | SYYMYLN | -0.19 ± 0.26
13 | TADFLCSINEAFSVFTLLRE | 1.03 ± 0.93
14 | TAPKIFLGGIL | inactive
15 | TAVGSRGFPRNHLRPKNTSG | -0.309 ± 0.53
16 | TAVVENCLPIWVVYSSKMY | 0.018 ± 0.6
17 | TCDFAAWICFYISLWVRVKI | -0.382 ± 0.61
18 | TCFMLKWIKQRLIDGSVKGR | 0.512 ± 1.2
19 | TCILDHGPSMGRHSLGALIL | -0.969 ± 1.1
20 | TCMTRTLYIL | -0.092 ± 0.37
21 | TCMWMILLFINR | 0.608 ± 0.27
22 | TCVIFLVLCQALSFPVLALC | 0.095 ± 0.79

Row | Substance | amyloid nucleation score
23 | TDEGLVCHK | 0.522 ± 0.75
24 | TDEVDDIQF | 0.552 ± 0.59
25 | TDGQWMSYSFSAFASYVVLG | -0.179 ± 0.58
26 | TDIFCP | -1.47 ± 1.7
27 | TDIHTVHRSNLVKVLRKGMN | -0.411 ± 0.53
28 | TDLFYMMCSRRQTYVCNLVR | 0.456 ± 0.43
29 | TDNMWCSNVIFLECTN | 4.07 ± 0.12
30 | TDYSFKLFTFFSSESNGFPI | -1.01 ± 1
31 | TEELYTGVTFL | -1.93 ± 1.5
32 | TEGFNTANA | -0.34 ± 1.1
33 | TELGVSPIAKRRNSVLDHAL | -0.449 ± 1.1
34 | TELSEHVRSRLWSKG | 0.355 ± 0.42
35 | TENVLLTYVFYAKSRLGSVV | 0.921 ± 0.56
36 | TETLADVLALERLPGCMKFI | 0.259 ± 0.68
37 | TFFLVLVSPD | 0.059 ± 1.4
38 | TFLNFWPQFCMEFY | 5.98 ± 0.06
39 | TFNVVNPMVTYN | -0.776 ± 0.3
40 | TFQGARYYYWPAVF | 1.33 ± 0.63
41 | TFSHWPLWNVYRSFAFTCRP | 0.871 ± 0.47
42 | TFSQWWVRSCFGTRMNWCLV | 0.174 ± 1.2
43 | TFTFVFW | 3.46 ± 0.13
44 | TFVVELS | -1.64 ± 2.4

Row | Substance | amyloid nucleation score
45 | TFYRLSISVVSLNMVIHPGP | 1.5 ± 0.2
46 | TGASLLVAHRTYSEIILRCD | 0.606 ± 0.49
47 | TGATATYKFFIFFIL | 1.28 ± 0.22
48 | TGCGERWGQSMVIGVSL | -0.102 ± 0.62
49 | TGEPKRS | 1.58 ± 0.49
50 | TGKNSC | 3.44 ± 0.099
51 | TGNYDYVSFNQRKLHGCFNQ | -0.652 ± 0.93
52 | TGRCR | inactive
53 | TGRYISDYCVIKAYVYSICD | -0.135 ± 0.39
54 | TGTSSPMRPLH | 0.532 ± 0.69
55 | TGVCTGECWYRGLVQSCSGA | -0.239 ± 0.53
56 | THCVSLLGIYFFSSWVMIVR | -0.266 ± 0.4
57 | THFRCH | 0.762 ± 0.8
58 | THNSLFSHVSWYRCVSSGVF | 0.304 ± 1.1
59 | TIECFYGVVSFRHNQYYGAQ | 2.16 ± 0.17
60 | TIFLQALGYSRWLLEISMDR | -1.06 ± 0.96
61 | TIFVPGALVDFAAGGTHQLI | -0.088 ± 1.3
62 | TIFVYSKTNL | 2.64 ± 0.18
63 | TITIVVRYVETRCGNIRDVE | 0.794 ± 0.45
64 | TIVFMRAHIFW | 0.788 ± 0.25
65 | TIVRGSNYRPPVWPSDY | -0.535 ± 1.1
66 | TIWDSRTSFVYS | 0.254 ± 0.56
